From PMC3919625 (Cell reports, 2013) come the findings set out here.

The assay deals with gp120 from HIV-1 strain SF162 (clade B) (HIV-1 group M subtype B, isolate SF162, UniProt P19550, strain). In words: SPR. (SPR reads the build-up and loss of mass on a sensor chip optically.)

B1: 2G12 IgG monomer (antibody, V domains shown)
VH: EVQLVESGGGLVKAGGSLILSCGVSNFRISAHTMNWVRRVPGGGLEWVASISTSSTYRDYADAVKGRFTVSRDDLEDFVYLQMHKMRVEDTAIYYCARKGSDRLSDNDPFDAWGPGTVVTVSP
VL: VVMTQSPSTLSASVGDTITITCRASQSIETWLAWYQQKPGKAPKLLIYKASTLKTGVPSRFSGSGSGTEFTLTISGLQFDDFATYHCQHYAGYSATFGQGTRVEIK
B1: the binding result is on record as “binds”.

B2: 2G12 IgG dimer (antibody, V domains shown)
VH: B1 VH
VL: B1 VL
In the case of B2, the binding result is on record as “binds”.
